Source: article PMC11861601, “Multitarget mechanism of MYC inhibition by the bacterial lon protease in disease” (Scientific Reports, 2025)

B1: Lon N-terminal domain peptide (aa 1-245) (domain or fragment, E. coli, UniProt P0A9M0 1-245, looked up)
chain: MNPERSERIEIPVLPLRDVVVYPHMVIPLFVGREKSIRCLEAAMDHDKKIMLVAQKEASTDEPGVNDLFTVGTVASILQMLKLPDGTVKVLVEGLQRARISALSDNGEHFSAKAEYLESPTIDEREQEVLVRTAISQFEGYIKLNKKIPPEVLTSLNSIDDPARLADTIAAHMPLKLADKQSVLEMSDVNERLEYLMAMMESEIDLLQVEKRIRNRVKKQMEKSQREYYLNEQMKAIQKELGEMD
notes: Lon protease, E. coli, UniProt P0A9M0, N-terminal domain, aa 1-245; also called NTD; NTD peptide; source: E. coli BL21 (DE3), purified (Strep-Tactin Sepharose)
B2: His-tagged full-length N-MYC (natural protein, human, UniProt P04198 1-464, looked up)
chain: MPSCSTSTMPGMICKNPDLEFDSLQPCFYPDEDDFYFGGPDSTPPGEDIWKKFELLPTPPLSPSRGFAEHSSEPPSWVTEMLLENELWGSPAEEDAFGLGGLGGLTPNPVILQDCMWSGFSAREKLERAVSEKLQHGRGPPTAGSTAQSPGAGAASPAGRGHGGAAGAGRAGAALPAELAHPAAECVDPAVVFPFPVNKREPAPVPAAPASAPAAGPAVASGAGIAAPAGAPGVAPPRPGGRQTSGGDHKALSTSGEDTLSDSDDEDDEEEDEEEEIDVVTVEKRRSSSNTKAVTTFTITVRPKNAALGPGRAQSSELILKRCLPIHQQHNYAAPSPYVESEDAPPQKKIKSEASPRPLKSVIPPKAKSLSPRNSDSEDSERRRNHNILERQRRNDLRSSFLTLRDHVPELVKNEKAAKVVILKKATEYVHSLQAEEHQLLLEKEKLQARQQQLLKKIEHARTC
notes: N-MYC, human, full length; source: bought: Signalway (SAB Signalway Antibody), Cat# AP72694

Columns and labels:
Test in all cases: SPR; Biacore X100; His-tagged ligand (~0.2 µM) captured on Ni-charged Sensor Chip NTA; Lon protein or domain injected at five dilutions; 25 °C, 30 µL/min; running buffer as printed 0.1 M HEPES, 1.5 M NaCl, 0.03 M EDTA, 0.5% v/v Surfactant P20; reference cell without nickel; 1:1 Langmuir fit
Settings in all cases: both partners purified
[1] = target: T1, His-tagged full-length c-MYC (human, UniProt P01106-1 1-439)
T1 construct: c-MYC, human, full length; see the vendor's catalogue entry; source: bought: Cusabio, CSB-EP015270HU

[2] = target: B2
[3] = target: T2, recombinant Escherichia coli Lon protease (aa 1-778) (E. coli, UniProt P0A9M0 1-778)
T2 construct: Lon protease, E. coli, UniProt P0A9M0, aa 1-778 as printed; Gene synthesised (GenScript) and cloned in a pASK-63 A+ vector (IBA); also called rLon; full-length Lon; source: E. coli BL21 (DE3), purified (Strep-Tactin Sepharose)

T1 sequence (P01106 16-454): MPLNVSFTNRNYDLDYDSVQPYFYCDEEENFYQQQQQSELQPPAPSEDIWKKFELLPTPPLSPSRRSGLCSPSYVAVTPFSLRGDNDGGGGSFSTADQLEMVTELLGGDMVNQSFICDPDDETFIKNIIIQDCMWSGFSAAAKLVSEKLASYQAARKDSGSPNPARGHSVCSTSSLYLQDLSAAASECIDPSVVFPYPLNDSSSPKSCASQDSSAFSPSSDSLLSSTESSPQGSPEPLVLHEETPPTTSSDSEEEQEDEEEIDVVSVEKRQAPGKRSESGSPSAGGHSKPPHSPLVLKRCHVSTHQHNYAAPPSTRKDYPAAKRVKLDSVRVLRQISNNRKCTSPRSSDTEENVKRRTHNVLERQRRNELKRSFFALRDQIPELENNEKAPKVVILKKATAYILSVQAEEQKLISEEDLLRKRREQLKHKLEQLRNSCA

Binder | Kd [1] | Kd [2] | binding result [3]
B1 | < 1000 nM | < 1000 nM | 
B2 |  |  | binds
